# Test results from patent US20200207835A1, “SRCP1-BASED THERAPY FOR DISEASES ASSOCIATED WITH PROTEIN AGGREGATION” (THE MEDICAL COLLEGE OF WISCONSIN, INC., priority 2017, published 2020).
# How the values were obtained:
# [1] = system: HD iPSC-derived neurons; assay: Neurite length in HD iPSC-derived neurons; type: cell-based, human; conditions: HD iPSC-derived neurons with 60 or 180 glutamines, overexpression of SRCP1
# Experimental: iPSC transfections were performed with mixed cultures of astrocytes and neurons adhered to matrigel-coated coverslips, seeded at 2.6×10^4 cells/cm^2. iPSC transfections were performed using Lipofectamine 2000 according to the manufacturer's instructions and recommended DNA concentrations for a 24-well transfection.
# Plated iPSC derived cultures of astrocytes and neurons were fixed with 4% paraformaldehyde in PBS for 20 minutes at room temperature, 3-5 days after transfection. Cells were permeabilized and blocked prior to antibody labeling. Nuclei were labeled with Hoechst nuclear dye. Primary antibodies used were rabbit anti-Tuj1 (Covance MRB-435P), chicken anti-Tuj1(Gene Tex, GTX85469) and mouse anti-GFAP (Cell Signaling, 3670). Images were taken using an upright Nikon fluorescent microscope with a 40× objective. The number of neural cells with GFP positive puncta was quantified using NIS Elements object quantification tool (Nikon) and neurite length was measured using NIS Elements length measurement tool (Nikon).
# For control iPSCs, four biological replicates from two independent differentiations were analyzed and for HD iPSCs, four biological replicates were analyzed from four separate differentiations using two independent HD lines.
# [2] = molecular target: ^GFPHtt^ex1Q74 (Homo sapiens, UniProt P42858); assay: GFPHttex1Q74 aggregation in zebrafish spinal cord neurons; type: in vivo; parameters: encoding pEGFP huntingtin exon-1 with 23 (^GFPHtt^ex1Q23) or 74 (^GFPHtt^ex1Q74) glutamines; host or cells: zebrafish embryos injected with in vitro transcribed mRNA; spinal cord neurons imaged; conditions: zebrafish embryos injected with RNA
# Experimental: To test the effect of ^RFPSRCP1 on ^GFPHtt^ex1Q74 aggregation in zebrafish, each plasmid was used for in vitro synthesis of mRNA (mMessage mMachine T7 transcription kit, ThermoFisher Scientific). Newly fertilized embryos were injected with either 200 pg mRNA each of ^RFPSRCP1 and ^GFPHtt^ex1Q74, or RFP alone and ^GFPHtt^ex1Q74. Embryos were developed until 54 hours post fertilization, at which time live specimens were anesthetized in Tricane, embedded in 1% low-melt agarose, and subjected to confocal microscopy. Spinal cord images were taken at 100 μm×100 μm and a scan depth of 50 μm. Single image planes from 488 nm and 568 nm excitation were collected. Images were then processed for threshold analysis using ImageJ and the total number puncta were scored.
# [3] = system: mutant (G85R or A4V) SOD1; assay: Aggregated mutant SOD1 in HEK293 cells (ultracentrifugation, western blot); type: cell-based, human; conditions: HEK293, 48 hours, overexpression of SRCP1
# Experimental: HEK293 cells were transfected with either wild-type or mutant (G85R or A4V) SOD1 either in the presence or absence of SRCP1 for 48 hours. Cells were then collected and lysed prior to ultracentrifugation to isolate aggregated proteins. After ultracentrifugation cell protein in the pellet was suspended in Laemmli buffer and analyzed by SDS-PAGE and western blot
# [4] = system: ^GFPHtt^ex1Q74; assay: GFPHttex1Q74 aggregation in transfected HEK293 cells (fluorescent/confocal microscopy, western blot, filter trap assay); type: cell-based, human
# Experimental: Transfections were performed with Lipofectamine 2000 (Invitrogen by ThermoFisher Scientific) and adapted from the manufacturer's instructions. Briefly, cells were plated on either 12-well or 6-well plates and transfected at 50-70% confluency. For 12-well transfections, 0.833 μg of DNA per well was mixed with 50 μl of OptiMEM (Gibco by Life Technologies) media and incubated for 5 minutes at room temperature. Lipofectamine 2000 in a 2:1, μl of lipofectamine: μg DNA ratio was mixed with 50 μl of OptiMEM media and incubated for 5 minutes at room temperature. DNA and Lipofectamine were mixed and incubated for 15 minutes at room temperature. Fresh media was added to cells prior to the addition of DNA and lipofectamine. For 6-well transfections, the same protocol is followed except that 1.25 μg of DNA per well and 100 μl of OptiMEM for dilution was used. Media was changed 24 hours post-transfection and cells were harvested 48 hours post-transfection. Prior to harvesting, HEK293 cells were washed three times with ice-cold 1×PBS. Samples were then lysed with either 150 μl of ice-cold NETN (with protease inhibitor) or 1× Laemmli Buffer and sonicated twice for 5-8 seconds.
# (§1) For proteasome inhibition, 30 hours post-transfection cells would be replenished with DMEM containing either DMSO or 10 μM MG132 (Sigma-Aldrich) for 18 hours. Prior to harvesting, HEK293 cells were washed three times with ice-cold 1×PBS and imaged by fluorescent microscopy with a 20× objective using the Evos FL Auto Imaging System. Cells were then lysed with either 150 μl of ice-cold NETN (with protease inhibitor) or 1× Laemmli Buffer and sonicated twice for 5-8 seconds.
# as §1, with “autophagy” for “proteasome”, “24” for “30”, “and treated with” for “containing”, “5 mM 3-Methyladenine” for “10 μM MG132”, “an additional 24” for “18”
# For HEK293s′, slides were prepared by placing coverslips in 6-well plates and incubating with poly-L-lysine hydrobromide (Sigma-Aldrich) for an hour at room temperature. Coverslips were rinsed with 1×PBS three times prior to plating HEK293 cells. HEK293 cells were then transfected and fixed by incubation in 4% paraformaldehyde for 20 minutes at room temperature. Coverslips were mounted with ProLong Gold Antifade reagent and imaged with a 20× objective using the Evos FL Auto Imaging System or with a 40× objective using the Leica TCS SP5 Confocal Microscope System. For confocal, Z-stack images were obtained at […] intervals at 1024×1024 pixel resolution and merged using Fiji.
# Following sonication, lysates were subjected to BCA protein assay (ThermoFisher Scientific) and prepared for loading by the addition of 4× laemmli buffer and boiling for four minutes. Samples then loaded on SDS-polyacrylamide gels, ran at 175 V, and transferred onto an Immuno-blot PVDF membrane (Biorad) overnight at 30 V. Membranes were blocked in 5% milk in TBS with 0.1% Tween (TBST) and incubated in primary antibody overnight at 4° C. Following primary, membranes were washed for 10 minutes at room temperature three times with TBST and incubated in secondary for an hour at room temperature. Membranes were then washed for 10 minutes at room temperature three times with TBST and then incubated in buffer for enhanced chemiluminescence (50 mM Na2HPO4; 50 mM Na2CO3; 10 mM NaBO3.4H2O; 250 mM luminol; 90 mM coumaric acid).
# For HEK293 lysates, BCA protein assay was used to determine protein concentration. […]
# [5] = HEK293, co-expression, fluorescent microscopy
# ^GFPHtt^ex1Q74, sequence (P42858 with tags, fused parts or gaps limits assumed): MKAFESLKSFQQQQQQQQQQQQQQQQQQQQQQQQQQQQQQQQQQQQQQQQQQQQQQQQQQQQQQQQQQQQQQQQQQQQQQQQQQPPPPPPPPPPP
# ^GFPHtt^ex1Q74 (Homo sapiens, UniProt P42858), sequence (P42858 with tags, fused parts or gaps): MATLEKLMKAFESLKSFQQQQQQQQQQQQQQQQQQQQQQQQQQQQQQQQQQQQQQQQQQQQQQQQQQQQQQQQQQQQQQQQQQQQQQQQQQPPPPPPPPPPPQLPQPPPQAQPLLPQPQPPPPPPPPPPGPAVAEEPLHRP
molecule,measurement,setting,value
"SRCP1: Dictyostelium discoideum serine-rich chaperone protein 1 (SEQ ID NO:2), expressed in cells as RFP-tagged construct (protein, RFP tag; Dictyostelium discoideum AX4) MTILSTFTSFSNPPKLNKSSFSSSTGSSLSMGSNSFAWGGGWGGFGGPKGGSFNVDIAGNLIWGVYGFIRGGVGLVKWRGLQKGCKQP",neurite length,[1],significantly increased neurite length
same,GFPHttex1Q74 puncta in spinal cord neurons,[2],significant reduction of ^GFPHtt^ex1Q74 puncta
same,levels of aggregated mutant SOD1,[3],reduces the levels of aggregated mutant SOD1
same,polyQ aggregation under proteasome inhibition,"[4]; HEK293, SRCP1 in the presence of proteasome inhibition",prevented polyQ aggregation
same,"levels of monomeric, soluble GFPHttex1Q74","[4]; HEK293, co-expression","no effect on the levels of monomeric, soluble"
same,soluble GFPHttex1Q74 levels under autophagy inhibition,"[4]; HEK293, co-expression of RFPSRCP1 plus 5 mM 3-MA",did not lead to a significant increase in soluble
same,soluble GFPHttex1Q74 under proteasome inhibition,"[4]; HEK293, co-expression of RFPSRCP1 plus proteasome inhibitor, compared to proteasome inhibition alone",even further increase in the amount of soluble
same,number of GFPHttex1Q74 puncta,[4]; [5],significantly decreases the number of puncta
same,size of GFPHttex1Q74 puncta,[4]; [5],significantly decreases ^GFPHtt^ex1Q74 puncta size
same,amount of GFPHttex1Q74 aggregates,"[4]; HEK293, co-expression, SDS-PAGE, filter trap assay, confocal microscopy",greatly reduced the amount of ^GFPHtt^ex1Q74 aggregates
